Among the data in a protein production outcome set (Wang et al. 2014) are protein production values, retold here.

A short description of this data set: label from the status in PepcDB records.
For the sequence “MSLKYGHVAWIQQILDGSYADAMNTLKNITVDDSKKGESLSECELHLNVAKLSSLLVEKDNLDINTLRKIQYNLDTIDAEKNISNKLKKGEVQICKRFKNGSIREVFNILVEELKSTTVVNLSDLVELYSMLDDEESLFIPLRLLSVDGNLLNFEVKKFLNALVWRRIVLLNASNEGDKLLQHIVKRVFDEELPKNNDFPLPSVDLLCDKSLLTPEYISETYGRFPIDQNAIREEIYEEISQVETLNSDNSLEIKLHSTIGSVAKEKNYTINYETNTVEYEGHHHHHH”, the protein production result was “not failed”.
Take “MGSSHHHHHHSSGRENLYFQGEPPPSVRREFPLKVRLSTGKDVRLSASLPDTVGQLKRQLHAQEGIEPSWQRWFFSGKLLTDRTRLQETKIQKDFVIQVIIN”: the protein production entry is given as “not failed”.
On to “MPAHSLSLYQYYRPPLDWQAQLAFYRLRAVAGMEWFSNTDNDCLEKIAQDKQALEYGRTLQIDDIRAVVHIIHEAHLHRFKLTLTFTPDSPIAGLQKLITQVRRILDLDADMQQIEHNLQRLTDLKLIPKSGLRIPGAGSLEHHHHHH”, for which the protein production result is given as “failed”.
For “MGCRATQRESVGFADKIRYTERRFISVFGVPLLIQLICQAPQRAQELEQIAARWQLQASDDSPFALVLSEERLELRKLDEPKLGAIYVDWVEGAVAHRRKFGGGKGQSIAKAAGLNKGVTPVVLDATAGLGRDAFVLASLGCRVQMVERHPVVAALLEDGLQRAKQDDEIGAWVSERISLLHASSHDALQQLASDPNFTSPDVVYLDPMYPHPENKKKTALVKKEMRVFQSLVGADNDADALLEPALQLAQKRVVVKRPDYAPWLGNRKPSMAMETKKNRFDVYVIAAMSGE” the value was “failed”.
As for “MFLLEPKQSSNPMQPQETAARYDTIAQWWQTQHQDSQYGLRQLERAIQFVDPTHQPKLALEVGCGSSGRFIECLSNRGFQVEGLDISTAMIDLAQQLHPEVTFYRADICEWIPSKSYSLIVAWDSTFHLPLDQQAPVHRKLCAALEDQGILMFTCGGGDQAGEIAGVFQGQDFEYSTLGIDAFLKLLSDCHCTCLHLEYDQYPERHVYVIAKKVGAAIH”, the protein production entry was “failed”.
As for “MVDDIFERGSKGSSDFFTGNVWVKMLVTDENGVFNTQVYDVVFEPGARTHWHSHPGGQILIVTRGKGFYQERGKPARILKKGDVVEIPPNVVHWHGAAPDEELVHIGISTQVHLGPAEWLGSVTEEEYRKATEGK”, the protein production entry is “not failed”.
For the sequence “MITILIFINIVKVVLFLFFLMTGTKIISGKMADEFKRFGLPSFFNFLTGAFEIVGAIGMLIGIWISTVALWAGLLLGGTMLAAALTLIVLARDPFKKAIPALVLFVLSLGISLYHIF”, the protein production entry is listed as “failed”.
Regarding “MDSDETGFEHSGLWVSVLAGLLLGACQAHPIPDSSPLLQFGGQVRQRYLYTDDAQQTEAHLEIREDGTVGGAADQSPESLLQLKALKPGVIQILGVKTSRFLCQRPDGALYGSLHFDPEACSFRELLLEDGYNVYQSEAHGLPLHLPGNKSPHRDPAPRGPARFLPLPGLPPALPEPPGILAPQPPDVGSSDPLSMVGPSQGRSPSYAS”, the protein production result is recorded as “failed”.
The entry for “MLDHFGSDPVFSPEQVLENRGRVAIFIDGSNLFYAALQLGIEIDYSKLLYRLTGGSRLLRSFFYTGVDRANEKQQGFLLWMRRNGYRVIAKDLVQLPDGSKKANLDVEIAVDMMALVGSYDTAVLVSGDGDLAYAVDAVSYRGARVEVVSLRSMTSDSLINVADRYIDLEQIQTDIQKLHRGQFSEPRLMEDRGGGTIELPSHE” is “failed”.
The entry for “MPVVECDIQTARAALADAGASFSDGNSEHELWHADLGDAHAVAYADKLVVQGGSPTDITAVVQPDRGGRVHAYFDGASRGNPGPAAVGWVLVSGDGGIVAEGGDTIGRATNNQAEYDALIAALEAAADFGFDDIELRGDSQLVEKQLTGAWDTNDPDLRRKRVRARELLTGFDDWSITHVPRATNERADALANEALDDA” is “failed”; for “MSPLASRALSFLGALSLLTFAATPVLAESTPTAAPPQFAVESPKAASSLLLSVAHAGKRLVAVGDRGHILLSDDDGKTWTQAKVPTRQLLTSVFFVNERKGWAVGHDAQILVSDDAGSTWARQFEDLGREAPLLDIWFADEQHGLAVGAYGALLETRDGGQHWEDVSERLDNEDQFHLNAIAAVKDNGLLVVGEAGSLFRSKDWGATWEKLEGPYEGSLFGAIGTADAGGVLVYGLRGHLFRSADFGDSWEEIPLKAASGDLEFGLSDGALLADGRIVVVGHGGSVLESTDGGRSFSVFNRPDRLSLAGVSATGDGHLILVGQGGVHLAAANGAALEQQQLEHHHHHH” it is “failed”; for “MIIVYTTFPDWESAEKVVKTLLKERLIACANLREHRAFYWWEGKIEEDKEVGAILKTREDLWEELKERIKELHPYDVPAIIRIDVDDVNEDYLKWLIEETKK” it is “not failed”.
For “MAQTKRFVIAGGGRVGKQTAENLVDQGHDVLLIESDEERVEALSDAYIGPVIHGDATRPSILQQADLAEADAIAALTDEPGTNLAICMEAQQYAPSIRTIARAETEADHEYDEVVDATLLPEYLGGDHAADILTGEDIRTLVYPTADLDIIKVTVAPSAPVAGRRLDEIALPSGSLLISTADRTELAGADTVLKAEEQYILAVETDVVDEVLKLMRG” the value was “failed”; for “MKLDDLNLFRQVVENGSYTAASRKTLIPVATITRRIQALEDSLDIRLLNRHARKLSLTEAGQKFYDECAPILATLVNTSEYLGEECRGAAGKLKIAAPSNLTKRMIQPILNKFMLLYPDISINLTMSNQPEQLDPTDWDIIFRVGKQRDSSLIARQIGSLEDILVASPSYLEKNSEPTHAQELHKHSLLKGNPLMRWRLTNKDGESVTITDAGRFEASELNVIRMACSNGLGITLMPDIMISQYLEEGSLIRVLSDWSANPRDIYMIYNYKDHQPEKVRLFIDFVSNHIPD”, “failed”; for “MTKLSDRLMEIYRLINQAARVADIGTDHAAIPIALLETNKSSFLVATDIGLGPLEKAKEQIELADLDQAKQIVLRLGDGLSVIKASDKIDTVVIAGMGGELIAKIISKIPDYLKNAKFILQPNNEEIDVRKAIEKNGQYIETEKIIYENRHFYEIIVAKRSQQGIVKMTNRELRFGPCLLKHRTSTFKNKWQERLDHSKQIEKILEKSLRTSTKRYDSLQAEIKTIEEALK”, “not failed”.
With “MNEDALTFLSRQHPYDELPAGVLNDVAAQVEKLSVAEGEMIYAYGEPLEGLYIIQSGLVDVRDQSDTQVSMLERGNSFGERGLLADGNAVTSARAVRDTLLIRVPVSLFNTLRTEQSPFQRFFARSSARPDKSATQQTSLAQVSVDALMVRNPVTCTPGTSVVDAAVLMTSRRISCLCITEEDRLTGIVTLRDLVGKALAAGLPPQTPLSDIIQNEPVSLPPTAIGSDVLHMMMEYNLGHLPIVDAGKLVGIVTQTDLTRYQATTAAGLVADAARAQSVEALADITGRIPALLVQLVAAGNRHDVVTRMITDIADVVTRRLLNMAEEKLGPAPLRYLWLACGSQGRQEQTGVSDQDNCLILEDGASRDDIAYFHEMATFVSDGLNACGYVYCPGDMMATNPRWCQPLSVWKEYFNGWIKSPSKEAQMLASVMFDLRPIGGDASLFHGMQQATLEKAAKNSIFTAHMASNSLTHQTPLGLLRGLATISSGDHRKTIDTKLNGVVPVVDLGRMYALQGKLTVANTRARLIAALNNKTISAKGGRDLLEAYDLVAQTRLEHQARLIKEGKAPDNYLPPARLSDFERSHLRDAFVVIKTMQSALMQGRGILG”, the protein production entry is “failed”.
On to “SSANEDQEMELEALRSIYEGDESFRELSPVSFQYRIGENGDPKAFLIEISWTETYPQTPPILSMNAFFNNTISSAVKQSILAKLQEAVEANLGTAMTYTLFEYAKDNKEQFMENHNPINSATSISNIISIETPNTAPSSKKKDKKEQLSKAQKRKLADKTDHKGELPRGWNWVDVVKHLSKTGSKDDE”, for which the protein production result is given as “failed”.
The entry for “MHVFGLPAIGALAGTQAYWVSLVDVYAAQARIAATGMYPSGRVKRAFPGCCRGYWGDAGGSVRAGWISAAWPYGRFDRSGRPVGGAQPQVIWCEVGCGMGEHELMIFGNKDLPQRTPERPLVTFAVFAYNQESFIRDAIEGAFAQTYEPLEIILSDDCSDDETFLIMQQMAAAYRGPHKVVVRKNHENLGVLGHVLTVAKMAAGKYMVVAAGDDISFPDRTERQVSFLERESDRVVVVSSHDVIFDENCDLPNQKQDSNLRLRKQWYKNNNSWFHGGTACYRLGVLRELPLPTSRLLYEDMALINIFKAMGYSSGFMEIPTIRRRFHQLNLGMQRPERNPWDEERRILRRIEHAADVMDYAADVIEGEGGKAAKLRVQAAIMRKYAKWPDLNFVDRFLLFFESLKAGYMRKASAKVLLGKDVVLDIRSLWC” is “failed”; for “MATIGLDRLYYSKITEDANGEETYAQPSVLAKAITAELSVELVEAILYADDGAAEVVKDFNSGTLTLGVDDIGPMVAADLTGASTDDNGVLISASENVGTPVAVGFRAQRANGTYRYFWLYRVKFGLPATNLQTKADSITFSTPTIEGTVMRRNKLDGLGKHPWKAEVTEGDPGVSSTTITGWFTEVYEPVYTPEP” it is “failed”; for “MRVDIWSDVVCPFCYIGKKRLEHVAAEAGIELDVHWHSFELDPDAPTSHDTSNTERLAKKYGRTFEEMQEMQQNIASMAAQEGIDFQWQKANSGNSFNAHRIIHLAQSKGLGNEAEEAFFHAYMTEGLAIGEREVVEEIASRIGLDHAEVEFVLDSNELSDFVRHDEKIAHEQLNISGVPFFVFDQKLALSGAQPKEVFLQVLQKALTQRENDAVAEASSDAVCSDDSCDIPQKS” it is “failed”.
For “MAQPSTTYKFELNLTDLDRNVYESVKQTIARHPSETEERMAVRLLAYALWYNENLSFGRGLSDVDEPALWEKSLDDRVLHWIEVGQPDADRLTWCSRRTERTSLLAYGSLRVWEGKVVSAVKNLKNLSIAAVPQEVLETLATDMPRSIKWDVMISEGTVFVTDDRGQHEVQLQWLLGERG” the value was “not failed”; for “KTFAALGSGVIGSGWIARALAHGLDVVAWDPAPGAEAALRARVANAWPALRKQGLAPGAAQERLRFVASIEECVGDADFIQESAPERLDLKLDLHARISAAARPDVLIGSSTSGLLPSEFYAEASHPERCLVGHPFNPVYLLPLVEVVGGERTAAEAVRAAMRVYESLGMRPLHVRKEVPGFIADRLLEALWREALHLVNDGVATTGEIDDAIRFGAGLRWSFMGTFLTYTLAGGNAGMRHFMAQFGPALQLPWTYLPAPELTEALIDRVVEGTAEQQGARSIAELERYRDDCLLAVLGAIRETKARHGFA”, “failed”.
